Source: article PMC10570040 (Nucleic Acids Research, 2023)
Where a chain is given by its changes, count along the chain named. In names and notes the source's numbering stands.

B1: EnfR mutant with N-terminal six residues deleted (ΔN^1–6) (domain or fragment, Thermococcus onnurineus NA1, UniProt B6YTS4 7-146, looked up)
chain: LTEQQIKILRLRARGLKQSEIAELLGTSRANISILERRALEKIEKARNTITIWEQINSKISVEVRKGEDIFTVPDKLFKKADELQIKVPYSTAEIIAFLVEHAPISDRIAKRDFTLFLDARDRLRISECLLEEFDEIGKQ
notes: TON_1525 (EnfR) of Thermococcus onnurineus NA1, residues 1-146 without the N-terminal six residues (N-6 region, residues 1-6); The limits 7-146 follow from the printed deletion of residues 1-6 of the 1-146 construct; also called mutant with the N-6 region deleted; source: E. coli, purified by the same procedure as the wild-type; not shown: His6, C-terminal, kept
B2: TON_1525 ('eighth note' fold regulator, EnfR), wild-type (natural protein, Thermococcus onnurineus NA1, UniProt B6YTS4 1-146, looked up)
chain: MGSKSFLTEQQIKILRLRARGLKQSEIAELLGTSRANISILERRALEKIEKARNTITIWEQINSKISVEVRKGEDIFTVPDKLFKKADELQIKVPYSTAEIIAFLVEHAPISDRIAKRDFTLFLDARDRLRISECLLEEFDEIGKQ
notes: Synthetic gene in pET24a(+) with an in-frame non-cleavable C-terminal His6-tag; also called WT; wild-type EnfR; source: E. coli Rosetta (DE3), purified (75°C heat step, Ni-NTA, Superdex 75); not shown: His6, C-terminal, kept
B3: EnfR R43A mutant (natural protein, Thermococcus onnurineus NA1, UniProt B6YTS4 1-146, looked up)
chain: B2 chain with R43A
notes: TON_1525 (EnfR) of Thermococcus onnurineus NA1, residues 1-146, with R43A; source: E. coli, purified by the same procedure as the wild-type; not shown: His6, C-terminal, kept
B4: EnfR R44A mutant (natural protein, Thermococcus onnurineus NA1, UniProt B6YTS4 1-146, looked up)
chain: B2 chain with R44A
notes: TON_1525 (EnfR) of Thermococcus onnurineus NA1, residues 1-146, with R44A; source: E. coli, purified by the same procedure as the wild-type; not shown: His6, C-terminal, kept
B5: EnfR R35A mutant (natural protein, Thermococcus onnurineus NA1, UniProt B6YTS4 1-146, looked up)
chain: B2 chain with R35A
notes: TON_1525 (EnfR) of Thermococcus onnurineus NA1, residues 1-146, with R35A; source: E. coli, purified by the same procedure as the wild-type; not shown: His6, C-terminal, kept
B6: EnfR (TON_1525) T55I mutant (natural protein, Thermococcus onnurineus NA1, UniProt B6YTS4 1-146, looked up)
chain: B2 chain with T55I
notes: TON_1525 (EnfR) of Thermococcus onnurineus NA1, residues 1-146, with T55I; The T55I change first arose in an adaptive laboratory evolution (strain 156T / MC11); here made by site-directed mutagenesis; source: E. coli Rosetta (DE3), purified (75°C heat step, Ni-NTA, Superdex 75); not shown: His6, C-terminal, kept

Molecular target: the molecule itself
Experiment: AUC; sedimentation velocity, 42,000 rpm, 20°C, absorbance at 280 nm, analysed with SEDFIT

| Protein | stoichiometry N |
| --- | --- |
| B1 | 2 |
| B2 | 2 |
| B3 | 2 |
| B4 | 2 |
| B5 | 2 |

Molecular target: the molecule itself
Experiment: crystal structure; microbatch under oil at 22°C; space group P4(3)2(1)2, two monomers in the asymmetric unit

| Protein | binding result |
| --- | --- |
| B6 | binds |
